Paper PMC4187731, “WWP2-WWP1 Ubiquitin Ligase Complex Coordinated by PPM1G Maintains the Balance between Cellular p73 and ΔNp73 Levels” (Molecular and Cellular Biology, 2014)

Target: T1, MBP-WWP2 (UniProt O00308 1-870)
T1 construct: WWP2; also called bacterially purified WWP2; source: bacterially expressed; bacterially purified (methods, results) or bacterial cell lysate
Assay: pull-down; GST, GST-p73 or GST-ΔNp73 on glutathione-Sepharose beads incubated with MBP-WWP2 for 1 h at 4°C; immunoblot with MBP antibody
Settings: both partners purified

T1 sequence (O00308 whole entry): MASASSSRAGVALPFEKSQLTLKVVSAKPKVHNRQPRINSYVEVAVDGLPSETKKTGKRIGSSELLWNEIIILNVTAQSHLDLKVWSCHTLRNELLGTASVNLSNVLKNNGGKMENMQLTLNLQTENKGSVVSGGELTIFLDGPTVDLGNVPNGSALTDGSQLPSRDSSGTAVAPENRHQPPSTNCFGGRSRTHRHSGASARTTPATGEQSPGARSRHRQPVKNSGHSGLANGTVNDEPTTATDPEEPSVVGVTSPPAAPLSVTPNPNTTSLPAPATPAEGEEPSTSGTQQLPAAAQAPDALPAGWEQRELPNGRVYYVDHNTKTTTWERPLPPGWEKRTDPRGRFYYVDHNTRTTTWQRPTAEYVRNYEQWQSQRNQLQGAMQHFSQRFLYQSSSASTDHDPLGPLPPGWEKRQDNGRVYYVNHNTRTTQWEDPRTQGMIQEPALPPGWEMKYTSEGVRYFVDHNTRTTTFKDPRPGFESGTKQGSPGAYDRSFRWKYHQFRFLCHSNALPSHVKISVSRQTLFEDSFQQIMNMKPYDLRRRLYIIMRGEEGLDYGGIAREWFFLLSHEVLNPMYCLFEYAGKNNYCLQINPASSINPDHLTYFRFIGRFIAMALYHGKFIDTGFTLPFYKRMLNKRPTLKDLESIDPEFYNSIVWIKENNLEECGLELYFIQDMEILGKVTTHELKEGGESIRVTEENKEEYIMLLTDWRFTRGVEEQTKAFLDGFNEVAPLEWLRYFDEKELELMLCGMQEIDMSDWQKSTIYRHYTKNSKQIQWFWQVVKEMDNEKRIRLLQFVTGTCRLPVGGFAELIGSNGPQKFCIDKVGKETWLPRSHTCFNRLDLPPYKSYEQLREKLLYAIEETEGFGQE

Binder | binding result
GST-ΔNp73 (natural protein, UniProt O15350-8 1-587, looked up) MLYVGDPARHLATAQFNLLSSTMDQMSSRAASASPYTPEHAASVPTHSPYAQPSSTFDTMSPAPVIPSNTDYPGPHHFEVTFQQSSTAKSATWTYSPLLKKLYCQIAKTCPIQIKVSTPPPPGTAIRAMPVYKKAEHVTDVVKRCPNHELGRDFNEGQSAPASHLIRVEGNNLSQYVDDPVTGRQSVVVPYEPPQVGTEFTTILYNFMCNSSCVGGMNRRPILIIITLEMRDGQVLGRRSFEGRICACPGRDRKADEDHYREQQALNESSAKNGAASKRAFKQSPPAVPALGAGVKKRRHGDEDTYYLQVRGRENFEILMKLKESLELMELVPQPLVDSYRQQQQLLQRPSHLQPPSYGPVLSPMNKVHGGMNKLPSVNQLVGQPPPHSSAATPNLGPVGPGMLNNHGHAVPANGEMSSSHSAQSMVSGSHCTPPPPYHADPSLVSFLTGLGCPNCIEYFTSQGLQSIYHLQNLTIEDLGALKIPEQYRMTIWRGLQDLKQGHDYSTAQQLLRSSNAATISIGGSGELQRQRVMEAVHFRVRHTITIPNRGGPGGGPDEWADFGFDLPDCKARKQPIKEEFTEAEIH | binds
GST-p73 (natural protein, UniProt O15350 1-636, looked up, also called glutathione S-transferase (GST)–p73) MAQSTATSPDGGTTFEHLWSSLEPDSTYFDLPQSSRGNNEVVGGTDSSMDVFHLEGMTTSVMAQFNLLSSTMDQMSSRAASASPYTPEHAASVPTHSPYAQPSSTFDTMSPAPVIPSNTDYPGPHHFEVTFQQSSTAKSATWTYSPLLKKLYCQIAKTCPIQIKVSTPPPPGTAIRAMPVYKKAEHVTDVVKRCPNHELGRDFNEGQSAPASHLIRVEGNNLSQYVDDPVTGRQSVVVPYEPPQVGTEFTTILYNFMCNSSCVGGMNRRPILIIITLEMRDGQVLGRRSFEGRICACPGRDRKADEDHYREQQALNESSAKNGAASKRAFKQSPPAVPALGAGVKKRRHGDEDTYYLQVRGRENFEILMKLKESLELMELVPQPLVDSYRQQQQLLQRPSHLQPPSYGPVLSPMNKVHGGMNKLPSVNQLVGQPPPHSSAATPNLGPVGPGMLNNHGHAVPANGEMSSSHSAQSMVSGSHCTPPPPYHADPSLVSFLTGLGCPNCIEYFTSQGLQSIYHLQNLTIEDLGALKIPEQYRMTIWRGLQDLKQGHDYSTAQQLLRSSNAATISIGGSGELQRQRVMEAVHFRVRHTITIPNRGGPGGGPDEWADFGFDLPDCKARKQPIKEEFTEAEIH | binds
